Results: patent US20200199244A1 (published 2020)
“And” between values parts separate entries of the source, which are not always exact repeats. Identical values can stand only once.

Legend:
[1] = target: T1, human CD40 (H76R) Fc fusion (human, UniProt P25942 21-193); test: SPR (ProteOn XPR36), dAb over CD40-Fc captured by anti-human IgG(Fc)
T1 construct: Built as wt-hCD40 with the printed substitution; also called hCD40-M1; hCD40 M1 (H76R)
Method: (§1) Assays were performed on a BioRad ProteOn XPR36 SPR instrument. The SPR surfaces were prepared by immobilizing 8 μg/ml anti-human IgG(Fc) antibody (Biacore/GE Healthcare) in 10 mM sodium acetate pH 4.5 on a BioRad GLC sensor chip using standard ethyl(dimethylaminopropyl) carbodiimide (EDC)/N-hydroxysuccinimide (NHS) chemistry, with ethanolamine blocking. The running buffer for immobilization and kinetic binding analysis was 10 mM sodium phosphate, 130 mM sodium chloride, 0.05% tween 20, pH 7.1. CD40-Fc fusion proteins at concentrations of 20 μg/ml were captured in the vertical orientation on these surfaces via the Fc tail, and reference surfaces lacking CD40-Fc proteins were used for reference subtraction. […] The surfaces were regenerated in both horizontal and vertical orientations with 30 s pulses of 3 M MgCl₂ followed by running buffer at 60 μl/min. Sensogram data was double-referenced and then fitted to a 1:1 Langmuir model using BioRad ProteOn Manager V.2.1.0.38 software, to determine the association rate constant (ka), the dissociation rate constant (kd), and the equilibrium dissociation constant (KD).

[2] = target: T2, wild type human CD40 Fc fusion (human, UniProt P25942 21-193); test: as above
T2 construct: also called wt-hCD40
Method: as §1

[3] = target: T3, human CD40 (H76R, W109L, L121P) Fc fusion (human); test: SPR ProteOn XPR36;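 also: surface plasmon resonance with CD40-Fc fusions captured through their Fc on an anti-human IgG chip, sensorgrams reference-subtracted against surfaces lacking CD40-Fc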
T3 construct: As m1 with H76R, W109L and L121P; also called hCD40-M5; not shown: human IgG1 Fc
T3 chain: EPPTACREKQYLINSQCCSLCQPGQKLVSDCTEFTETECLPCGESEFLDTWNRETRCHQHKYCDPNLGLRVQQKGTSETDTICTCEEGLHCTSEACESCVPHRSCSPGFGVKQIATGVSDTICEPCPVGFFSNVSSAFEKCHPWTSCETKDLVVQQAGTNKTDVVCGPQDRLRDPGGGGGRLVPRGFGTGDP

[4] = target: T4, human CD40 (W109R) Fc fusion (Chimpanzee CD40) (human, UniProt P25942 21-193); test: SPR ProteOn XPR36;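 also: surface plasmon resonance with CD40-Fc fusions captured through their Fc on an anti-human IgG chip, sensorgrams reference-subtracted against surfaces lacking CD40-Fc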
T4 construct: As m1 with W109R (residue of chimpanzee CD40); also called hCD40-M3; not shown: human IgG1 Fc

[5] = target: T5, human CD40 (W109L, L121P) Fc fusion (human, UniProt P25942 21-193); test: SPR ProteOn XPR36;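 also: surface plasmon resonance with CD40-Fc fusions captured through their Fc on an anti-human IgG chip, sensorgrams reference-subtracted against surfaces lacking CD40-Fc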
T5 construct: As m1 with W109L and L121P; also called hCD40-M4; not shown: human IgG1 Fc

[6] = target: T6, wild type cynomolgus monkey CD40 Fc fusion (cynomolgus monkey; human); test: SPR ProteOn XPR36;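 also: surface plasmon resonance with CD40-Fc fusions captured through their Fc on an anti-human IgG chip, sensorgrams reference-subtracted against surfaces lacking CD40-Fc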
T6 construct: also called wt-cyno-CD40; wt-cCD40; not shown: human IgG1 Fc
T6 chain: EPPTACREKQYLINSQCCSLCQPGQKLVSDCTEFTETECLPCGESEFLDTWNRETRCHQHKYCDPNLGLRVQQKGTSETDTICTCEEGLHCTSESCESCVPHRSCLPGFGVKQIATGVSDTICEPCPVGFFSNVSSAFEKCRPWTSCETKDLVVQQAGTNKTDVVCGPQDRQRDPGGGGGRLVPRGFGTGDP

[7] = target: T7, human CD40 (H76R) Fc fusion (human, UniProt P25942 21-193); test: SPR ProteOn XPR36, CD40-Fc captured, dAb analyte
T7 construct: As m1 with H76R; also called hCD40-M1; not shown: human IgG1 Fc

[8] = target: T8, wild type human CD40 Fc fusion (human, UniProt P25942 21-193); test: SPR ProteOn XPR36, CD40-Fc captured, dAb analyte
T8 construct: also called wt-hCD40; not shown: human IgG1 Fc

[9] = target: T9, human CD40 (H76R) Fc fusion (human, UniProt P25942 21-193); test: SPR, ProteOn XPR36; CD40-Fc captured, dAb analyte; 1:1 fit;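 as to Kd: CD40-Fc captured on anti-human IgG(Fc) surface of a GLC chip, buffer pH 7.1, sensorgrams double-referenced against surfaces without CD40-Fc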;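 as to koff: CD40-Fc captured on anti-human IgG(Fc) surface of a GLC chip, buffer pH 7.1, sensorgrams double-referenced against surfaces without CD40-Fc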;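 as to kon: CD40-Fc captured on anti-human IgG(Fc) surface of a GLC chip, buffer pH 7.1, sensorgrams double-referenced against surfaces without CD40-Fc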
T9 construct: also called hCD40-M1; hCD40 M1 (H76R); not shown: human IgG1 Fc

[10] = target: T10, wild type human CD40 Fc fusion (human, UniProt P25942 21-193); test: as above
T10 construct: also called wt-hCD40; not shown: human IgG1 Fc

[11] = target: T11, human CD40 (H76R, W109L, L121P) Fc fusion (human); test: SPR, ProteOn XPR36; CD40-Fc captured, dAb analyte
T11 construct: Same construct as wt-hCD40 with H76R, W109L and L121P; also called hCD40-M5; hCD40-M5 (H76R, W109L, L121P); not shown: human IgG1 Fc
T11 chain: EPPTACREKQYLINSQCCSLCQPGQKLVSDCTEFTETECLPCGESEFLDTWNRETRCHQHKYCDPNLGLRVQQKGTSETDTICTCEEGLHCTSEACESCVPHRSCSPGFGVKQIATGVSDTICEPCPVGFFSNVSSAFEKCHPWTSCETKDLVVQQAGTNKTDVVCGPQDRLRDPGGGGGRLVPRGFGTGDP

[12] = target: T12, human CD40 (W109R) Fc fusion (Chimpanzee CD40) (human, UniProt P25942 21-193); test: SPR, ProteOn XPR36; CD40-Fc captured, dAb analyte
T12 construct: Same construct as wt-hCD40 with W109R (the residue of chimpanzee CD40); also called hCD40-M3; hCD40 M3 (W109R); not shown: human IgG1 Fc

[13] = target: T13, wild type cynomolgus monkey CD40 Fc fusion (cynomolgus monkey (Macaca …)); test: SPR, ProteOn XPR36; CD40-Fc captured, dAb analyte
T13 construct: also called wt-cCD40; wt-cyno-CD40; not shown: human IgG1 Fc
T13 chain: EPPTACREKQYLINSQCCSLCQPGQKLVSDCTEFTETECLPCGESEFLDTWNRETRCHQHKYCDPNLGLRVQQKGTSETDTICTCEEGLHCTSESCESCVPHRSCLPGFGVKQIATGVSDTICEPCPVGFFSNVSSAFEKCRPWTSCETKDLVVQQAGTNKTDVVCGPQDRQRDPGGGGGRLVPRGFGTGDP

[14] = target: T14, human CD40 (W109L, L121P) Fc fusion (human, UniProt P25942 21-193); test: SPR, ProteOn XPR36; CD40-Fc captured, dAb analyte
T14 construct: Same construct as wt-hCD40 with W109L and L121P; also called hCD40-M4; hCD40 M4 (W109L, L121P); not shown: human IgG1 Fc

[15] = target: T10, wild type human CD40 Fc fusion; test: SPR, ProteOn XPR36; CD40-Fc captured, dAb analyte; 1:1 fit; repeat
Method: as §1

B1: BMS3h-38-211 (other)
VH: EVQLLASGGGLVQPGGSLRLSCAASGFTFEEEEMIWVRQAPGKGLEWVSAISRQGGSTYYADSVKGRFTISRDNSKNTLYLQMNSLRAEDTAVYYCGKEPFRYDYWGQGTLVTVSS
notes: Human domain antibody (dAb), single VH domain
- Kd [1]: < 10 nM
- Kd [2]: < 10 nM

B2: BMS3h-37-2 (other)
VH: EVQLLESGGGLVQPGGSLRLSCAASGFTFEWYEMQWVRRAPGKGLEWVSAISGDGYRTYYADSVKGRFTISRDNSKNTLYLQMNSLRAEDTAVYYCAKELGYFDYWGRGTLVTVSS
notes: as for B1
- Kd [1]: < 10 nM
- Kd [2]: < 10 nM

B3: BMS3h-37-2 (other)
VH: EVQLLESGGGLVQPGGSLRLSCAASGFTFEWYEMQWVRRAPGKGLEWVSAISGDGYRTYYADSVKGRFTISRDNSKNTLYLQMNSLRAEDTAVYYCAKELGYFDYWGRGTLVTVSS
notes: domain antibody (dAb), single VH domain
- binding result [3]: no binding (tested: 405 nM)
- binding result [4]: no binding (tested: 405 nM)
- binding result [5]: no binding (tested: 405 nM)
- binding result [6]: no binding (tested: 405 nM)
- Kd [7]: 2.6 nM
- Kd [8]: 2 nM

B4: BMS3h-37-2 (other)
VH: EVQLLESGGGLVQPGGSLRLSCAASGFTFEWYEMQWVRRAPGKGLEWVSAISGDGYRTYYADSVKGRFTISRDNSKNTLYLQMNSLRAEDTAVYYCAKELGYFDYWGRGTLVTVSS
notes: Anti-human CD40 domain antibody (dAb), single VH domain
- Kd [9]: 2.58 nM
- koff [9]: 0.000562 s⁻¹
- kon [9]: 217000 M⁻¹ s⁻¹
- Kd [10]: 1.96 nM
- koff [10]: 0.000417 s⁻¹
- kon [10]: 212000 M⁻¹ s⁻¹
- binding result [11]: no binding (tested: dAb tested up to 405 nM)
- binding result [12]: no binding (tested: dAb tested up to 405 nM)
- binding result [13]: no binding (tested: dAb tested up to 405 nM)
- binding result [14]: no binding (tested: dAb tested up to 405 nM)
- Kd [15]: 2 nM
- koff [15]: 0.000426 s⁻¹
- kon [15]: 213000 M⁻¹ s⁻¹

B5: BMS3h-37-11 (other)
VH: EVQLLESGGGLVQPGGSLRLSCAASGFTFEWYEMQWVRKAPGKGLEWVSAISGDGYRTYYADSVKGRFTISRDNSKNTLYLQMNSLRAEDTAVYYCAKELGYFDYRGRGTLVTVSS
notes: as for B1
- Kd [1]: < 10 nM
- Kd [2]: < 10 nM

B6: BMS3h-37-11 (other)
VH: EVQLLESGGGLVQPGGSLRLSCAASGFTFEWYEMQWVRKAPGKGLEWVSAISGDGYRTYYADSVKGRFTISRDNSKNTLYLQMNSLRAEDTAVYYCAKELGYFDYRGRGTLVTVSS
notes: as for B4
- Kd [9]: 2.39 nM
- koff [9]: 0.000717 s⁻¹
- kon [9]: 300000 M⁻¹ s⁻¹
- Kd [10]: 1.92 nM
- koff [10]: 0.00056 s⁻¹
- kon [10]: 291000 M⁻¹ s⁻¹
- binding result [11]: no binding (tested: dAb tested up to 405 nM)
- binding result [12]: no binding (tested: dAb tested up to 405 nM)
- binding result [13]: no binding (tested: dAb tested up to 405 nM)
- binding result [14]: no binding (tested: dAb tested up to 405 nM)
- Kd [15]: 2.28 nM
- koff [15]: 0.00064 s⁻¹
- kon [15]: 281000 M⁻¹ s⁻¹

B7: BMS3h-37-11 (other)
VH: EVQLLESGGGLVQPGGSLRLSCAASGFTFEWYEMQWVRKAPGKGLEWVSAISGDGYRTYYADSVKGRFTISRDNSKNTLYLQMNSLRAEDTAVYYCAKELGYFDYRGRGTLVTVSS
notes: as for B3
- binding result [3]: no binding (tested: 405 nM)
- binding result [4]: no binding (tested: 405 nM)
- binding result [5]: no binding (tested: 405 nM)
- binding result [6]: no binding (tested: 405 nM)
- Kd [7]: 2.4 nM
- Kd [8]: 1.9 nM and 2.3 nM
